The text below walks through data of patent US7354722 (SIGNAL PHARMACEUTICALS, dated 2008).

In the assay the target is T1, Xenopus Smurf1 (Xenopus, UniProt Q9PUN2 1-731).
T1 construct: Used as a yeast two-hybrid fusion and as in vitro translated 35S-Met-labelled protein; also called Xsmurf; 35S-labelled Smurf1
In words: in vitro co-immunoprecipitation: 35S-Smurf1 on FLAG-Smad bound to anti-FLAG beads. Here is the method: (A) Smurf1 interacts with Smad1. Yeast two-hybrid assays were done on yeast co-transformed with combinations of Xenopus Smurf1 (Xsmurf) together with Smad1, Smad2, lamin or vector alone. […] Co-immunoprecipitation on in vitro translated proteins was done by incubating 35S-labelled Smurf1 together with in vitro translated, 35S-Met trace-labelled Flag-tagged Smad1 (35S-F/Smad1), Smad2 (35S-F/Smad2) or Smad4 (35S-F/Smad4) immobilized on anti-Flag affinity gel matrices. After washing, bound proteins were eluted and analyzed by SDS-PAGE (right panel).

T1 sequence (Q9PUN2 whole entry, the tested form may be a part): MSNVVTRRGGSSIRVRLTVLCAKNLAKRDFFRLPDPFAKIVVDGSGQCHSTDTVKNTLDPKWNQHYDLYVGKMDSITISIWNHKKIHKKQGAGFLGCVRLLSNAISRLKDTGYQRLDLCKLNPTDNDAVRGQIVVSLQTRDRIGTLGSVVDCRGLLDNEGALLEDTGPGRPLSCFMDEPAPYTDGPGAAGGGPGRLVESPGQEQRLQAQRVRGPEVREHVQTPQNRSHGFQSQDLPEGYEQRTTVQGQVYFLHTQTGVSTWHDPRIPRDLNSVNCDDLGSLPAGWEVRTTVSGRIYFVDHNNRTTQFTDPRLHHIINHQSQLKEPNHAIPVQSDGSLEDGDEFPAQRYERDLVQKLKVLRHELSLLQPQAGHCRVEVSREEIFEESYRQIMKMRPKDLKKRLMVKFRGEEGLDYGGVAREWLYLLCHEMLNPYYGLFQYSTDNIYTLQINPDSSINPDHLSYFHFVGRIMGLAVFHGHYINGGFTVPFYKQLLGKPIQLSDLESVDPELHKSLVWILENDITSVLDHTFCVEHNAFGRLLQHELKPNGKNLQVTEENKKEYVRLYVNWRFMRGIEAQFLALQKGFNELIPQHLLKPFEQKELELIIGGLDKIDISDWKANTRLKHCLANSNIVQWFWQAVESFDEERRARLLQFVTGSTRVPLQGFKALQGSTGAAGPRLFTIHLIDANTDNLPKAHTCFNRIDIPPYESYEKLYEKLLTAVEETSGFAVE

B1: human Smad2, FLAG-tagged at the C-terminus, in vitro translated (other, UniProt Q15796 1-467, looked up)
chain: MSSILPFTPPVVKRLLGWKKSAGGSGGAGGGEQNGQEEKWCEKAVKSLVKKLKKTGRLDELEKAITTQNCNTKCVTIPSTCSEIWGLSTPNTIDQWDTTGLYSFSEQTRSLDGRLQVSHRKGLPHVIYCRLWRWPDLHSHHELKAIENCEYAFNLKKDEVCVNPYHYQRVETPVLPPVLVPRHTEILTELPPLDDYTHSIPENTNFPAGIEPQSNYIPETPPPGYISEDGETSDQQLNQSMDTGSPAELSPTTLSPVNHSLDLQPVTYSEPAFWCSIAYYELNQRVGETFHASQPSLTVDGFTDPSNSERFCLGLLSNVNRNATVEMTRRHIGRGVRLYYIGGEVFAECLSDSAIFVQSPNCNQRYGWHPATVCKIPPGCNLKIFNNQEFAALLAQSVNQGFEAVYQLTRMCTIRMSFVKGWGAEYRRQTVTSTPCWIELHLNGPLQWLDKVLTQMGSPSVRCSSMS
notes: also called 35S-F/Smad2; not shown: C-terminal FLAG tag
For B1, the binding result is “no binding”.

B2: mouse Smad4, FLAG-tagged at the C-terminus, in vitro translated (other, UniProt P97471 1-551, looked up)
chain: MDNMSITNTPTSNDACLSIVHSLMCHRQGGESETFAKRAIESLVKKLKEKKDELDSLITAITTNGAHPSKCVTIQRTLDGRLQVAGRKGFPHVIYARLWRWPDLHKNELKHVKYCQYAFDLKCDSVCVNPYHYERVVSPGIDLSGLTLQSNAPSMLVKDEYVHDFEGQPSLPTEGHSIQTIQHPPSNRASTETYSAPALLAPAESNATSTTNFPNIPVASTSQPASILAGSHSEGLLQIASGPQPGQQQNGFTAQPATYHHNSTTTWTGSRTAPYTPNLPHHQNGHLQHHPPMPPHPGHYWPVHNELAFQPPISNHPAPEYWCSIAYFEMDVQVGETFKVPSSCPVVTVDGYVDPSGGDRFCLGQLSNVHRTEAIERARLHIGKGVQLECKGEGDVWVRCLSDHAVFVQSYYLDREAGRAPGDAVHKIYPSAYIKVFDLRQCHRQMQQQAATAQAAAAAQAAAVAGNIPGPGSVGGIAPAISLSAAAGIGVDDLRRLCILRMSFVKGWGPDYPRQSIKETPCWIEIHLHRALQLLDEVLHTMPIADPQPLD
notes: also called 35S-F/Smad4; not shown: C-terminal FLAG tag
For B2, the binding result is listed as “no binding”.
